In publication PMC12746149, “Gluebodies Offer a Route To Improve Crystal Reliability and Diversity through Transferable Nanobody Mutations That Introduce Constitutive Close Contacts” (ACS Central Science, 2025):
Like-named read-outs stand apart in the source and are kept apart here.

How the values were obtained:
MAGEB1 [1] = molecular target: MAGEB1 (UniProt P43366)
[2] = molecular target: T1, truncated RECQL5 protein (11-453) (UniProt O94762); test: SEC; purified nanobody variants run with RECQL5 on size exclusion chromatography; comigration; conditions: both partners purified
T1 construct: RECQL5, residues 11-453, in pNIC-Bsa4; source: E. coli BL21-DE3-pRARE, purified (Ni-NTA, TEV cleavage, reverse Ni-NTA); not shown: His6, N-terminal, cleaved
T1 sequence (O94762 11-453): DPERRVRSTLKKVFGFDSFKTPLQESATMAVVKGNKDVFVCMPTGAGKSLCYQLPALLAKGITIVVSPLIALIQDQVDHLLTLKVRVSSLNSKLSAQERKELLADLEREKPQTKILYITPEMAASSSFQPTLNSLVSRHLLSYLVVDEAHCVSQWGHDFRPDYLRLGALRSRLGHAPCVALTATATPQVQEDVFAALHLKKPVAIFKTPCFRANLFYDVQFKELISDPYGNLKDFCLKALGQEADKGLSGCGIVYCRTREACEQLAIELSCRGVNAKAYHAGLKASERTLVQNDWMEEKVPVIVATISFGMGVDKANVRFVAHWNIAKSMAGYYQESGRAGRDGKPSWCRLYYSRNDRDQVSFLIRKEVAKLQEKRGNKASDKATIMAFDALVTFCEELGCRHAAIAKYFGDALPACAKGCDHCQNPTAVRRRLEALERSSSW

[3] = molecular target: T1, truncated RECQL5 protein (11-453); test: crystal structure; RECQL5 and nanobody mixed 1:1.5, complex isolated by SEC, Hampton Index screen; molecular replacement with PDB 5LB8 and chain A of 2X1O; conditions: both partners purified
[4] = molecular target: T2, MPP8 chromodomain (residues 53-117) (UniProt Q99549); test: crystal structure; MPP8 and 3A02 gluebody combined 1:1.2, complex isolated on Superdex 75 in 20 mM Hepes pH 7.5, 80 mM NaCl; vapor diffusion at 18 °C, 100 mM sodium acetate, 25% PEG 3000; conditions: both partners purified
T2 construct: MPP8, the region corresponding to the chromodomain, residues 53-117, in a modified pET30 vector; not shown: His tag, N-terminal, cleaved
T2 sequence (Q99549 53-117): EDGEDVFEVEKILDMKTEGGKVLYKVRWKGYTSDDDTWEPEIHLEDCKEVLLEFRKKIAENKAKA

MAGEB1 [5] = molecular target: T3, MAGEB1 (UniProt P43366); test: crystal structure; nanobody-target complex in two commercial coarse screens (192 conditions, two temperatures); conditions: both partners purified
T3 construct: MAGEB1
T3 sequence (P43366 whole entry, the tested form may be a part): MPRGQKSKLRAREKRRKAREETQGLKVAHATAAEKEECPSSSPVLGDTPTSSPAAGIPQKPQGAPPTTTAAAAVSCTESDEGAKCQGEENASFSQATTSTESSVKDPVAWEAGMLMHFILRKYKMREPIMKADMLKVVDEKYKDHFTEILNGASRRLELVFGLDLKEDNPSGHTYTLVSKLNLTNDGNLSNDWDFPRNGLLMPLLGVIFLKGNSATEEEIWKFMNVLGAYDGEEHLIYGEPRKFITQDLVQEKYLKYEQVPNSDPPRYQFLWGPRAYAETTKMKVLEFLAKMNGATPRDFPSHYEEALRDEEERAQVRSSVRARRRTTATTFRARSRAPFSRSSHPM

Row | Binder | binding result [3] | further results
1 | YNMAGEB1A-c001 (VHH) VHH: QVQLQESGGGLVQAGGSLRLSCAASGFTFDDYAIGWFRQVPGKEREGVSCTSSSVGSTYYADSVKGRFTITSDNAKNTVYLQMNSLKPEDTAVYYCAADSYPYGSTWCRPPFFASWGQGTQVTVS | – | binding result (MAGEB1 [1]): binds
2 | RECQL5 nanobody variant G1-001 (VHH, the mutated chain is in PDB 7ZML; numbers count on: IMGT numbering; six-residue tail left after TEV cleavage of the C-terminal 6xHis tag; vector pNIC-CTH0; source: E. coli KRX, purified (Ni-NTA, TEV cleavage, reverse Ni-NTA); not shown: His6, C-terminal, cleaved) VHH: QVQLQESGGGLVQAGGSLRLSCAASGSIFSINRMGWYRQAPGKQRELVAAITSGGSTNYAYSVKGRFTISRDNAKNTVYLQMNSLKPEDTAIYYCEAYGTYTLAPTGEGEYDDYWGQGTQVTVSA | – | binding result [2]: binds
3 | RECQL5 nanobody variant G4-043 (VHH, the mutated chain is in PDB 7ZMS; numbers count on: IMGT numbering; G4 and G5 constructs were amplified from the synthesised DNA fragments with a different set of primers; source: E. coli KRX, purified (Ni-NTA, TEV cleavage, reverse Ni-NTA); not shown: MBP (inferred from the G3 scaffold), N-terminal, cleaved; His6 (inferred from the G3 scaffold), N-terminal, cleaved) VHH: QVQLVENGGGCVQATGSLRLSCAASGSIFSINRMTWYRQAPGKEREWVAAITSGGSTNYADSVKGRFTISRDSAKGTVYLQMNSLKPEDTAVYYCEAYGTYTLAPTGEGEYDDYWGQGTQVMVS | binds | –
4 | 3A02 gluebody (Nb 3A02 nanobody with the Gluebody mutations S7N, Q14K and T125M) (VHH, Nb 3A02 with three stated mutations; the mutated chain is in PDB 9H77; also called Gb; not shown: His tag, N-terminal, cleaved) VHH: QVQLQENGGGLVKPGGSLRLSCAASGFTLSDYVMTWVRQAPGKGPEWVSRISAGGSTRYVDSVKGRFTISRDNAKNTMYLQMNSLKPEDTAVYYCARGSTLFSTNWDYRGQGTQVMVS | – | binding result [4]: binds
5 | nanobody of the MAGEB1 complex (PDB 6R7T) (VHH, naïve (not engineered) nanobody scaffold) VHH: QVQLQESGGGLVQPGGSLRLSCAASGFTFSTYAMSWFRQAPGKGLEWVASINSSGGGIQSYADSVKGRFTISRDNAKNTLYLQMNSLEPEDTAVYYCAAAAWRVGTYDYRGQGTQVTVSS | – | binding result (MAGEB1 [5]): binds
6 | RECQL5 nanobody variant G2-001 (VHH, as the chain of m3 (G1-001, D69Y) with S7N:L12C; the mutated chain is in PDB 7ZMM; numbers count on: IMGT numbering; six-residue tail left after TEV cleavage of the C-terminal 6xHis tag; vector pNIC-CTH0; made by mutagenesis from G1-001; source: E. coli KRX, purified (Ni-NTA, TEV cleavage, reverse Ni-NTA); not shown: His6, C-terminal, cleaved) VHH: QVQLQENGGGCVQAGGSLRLSCAASGSIFSINRMGWYRQAPGKQRELVAAITSGGSTNYAYSVKGRFTISRDNAKNTVYLQMNSLKPEDTAIYYCEAYGTYTLAPTGEGEYDDYWGQGTQVTVSA | binds | –
7 | RECQL5 nanobody variant G3-048 (VHH, the mutated chain is in PDB 7ZMN; numbers count on: IMGT numbering; synthesised DNA in pNIC-MBP2-LIC; no ENLYFQ tail; source: E. coli KRX, purified (Ni-NTA, TEV cleavage, reverse Ni-NTA); not shown: MBP, N-terminal, cleaved; His6, N-terminal, cleaved) VHH: QVQLVENGGGCVQATGSLRLSCAASGSIFSINRMTWYRQAPGKEREWVAAITSGGSTNYADSVKGRFTISRDSAKGTVYLQMNSLKPEDTAVYYCEAYGTYTLAPTGEGEYDDYWGQGTQVTVS | binds | –
8 | RECQL5 nanobody variant G3-052 (VHH, the mutated chain is in PDB 7ZMO; numbers count on: IMGT numbering; synthesised DNA in pNIC-MBP2-LIC; no ENLYFQ tail; source: E. coli KRX, purified (Ni-NTA, TEV cleavage, reverse Ni-NTA); not shown: MBP, N-terminal, cleaved; His6, N-terminal, cleaved) VHH: QVQLVENGGGCVQAGGSLRLSCAASGSIFSINRMTWYRQAPGKEREWVAAITSGGSTNYADSVKGRFTISRDSAKGTVYLYMNSLKPEDTAVYYCEAYGTYTLAPTGEGEYDDYWGQGTQVTVS | binds | –
9 | RECQL5 nanobody variant G2*-006 (VHH, the mutated chain is in PDB 7ZMQ; source: E. coli KRX, purified (Ni-NTA, TEV cleavage, reverse Ni-NTA); not shown: MBP (from the vector pNIC-MBP2-LIC), N-terminal, cleaved; His6 (from the vector pNIC-MBP2-LIC), N-terminal, cleaved) VHH: QVQLVENGGGNVQAGGSLRLSCAASGSIFSINRMTWYRQAPGKEREWVAAITSGGSTNYAYSVKGRFTISRDNAKNTVYLQMNSLKPEDTAVYYCEAYGTYTLAPTGEGEYDDYWGQGTQVTVS | binds | –
10 | RECQL5 nanobody variant G2*-011 (VHH, the mutated chain is in PDB 7ZMR; source: E. coli KRX, purified (Ni-NTA, TEV cleavage, reverse Ni-NTA); not shown: MBP (from the vector pNIC-MBP2-LIC), N-terminal, cleaved; His6 (from the vector pNIC-MBP2-LIC), N-terminal, cleaved) VHH: QVQLVENGGGCVQAGGSLKLSCAASGSIFSINRMTWYRQAPGKEREWVAAITSGGSTNYAYSVKGRFTISRDNAKNTVYLQMNSLKPEDTAVYYCEAYGTYTLAPTGEGEYDDYWGQGTQVTVS | binds | –
